# Data from patent US11795454B2, “Targeted delivery system” (Cedars-Sinai Medical Center, priority 2009, dated 2023).
# Entries after “also recorded” stand apart in the source; their conditions may differ.
# B1: HerDox: self-assembled nanoparticle of oligonucleotide duplex, doxorubicin and HerPBK10 (conjugate)
# chain: LPPRLKEMKSQESAAGSKLVLRCETSSEYSSLRFKWFKNGNELNRKNKPQNIKIQKKPGKSELRINKASLADSGEYMCKVISKLGNDSASANITIVESNEIITGMPASTEGAYVSSESPIRISVSTEGANTSSSTSTSTTGTSHLVKCAEKEKTFCVNGGECFMVKDLSNPSRYLCKCQPGFTGARCTENVPMKVQNQEKAEELYMRRAAMYEEGPPPSYESVVSAAPVAAALGSPFDAPLDPPFVPPRYLRPTGGRNSIRYSELAPLFDTTRVYLVDNKSTDVASLNYQNDHSNFLTTVIQNNDYSPGEASTQTINLDDRSHWGGDLKTILHTNMPNVNEFMFTNKFKARVMVSRLPTKDNQVELKYEWVEFTLPEGNYSETMTIDLMNNAIVEHYLKVGRQNGVLESDIGVKFDTRNFRLGFDPVTGLVMPGVYTNEAFHPDIILLPGCGVDFTHSRLSNLLGIRKRQPFQEGFRITYDDLEGGNIPALLDVDAYQASLKDDTEQGGGGAGGSNSSGSGAEENSNAAAAAMQPVEDMNDHAIRGDTFATRAEEKRAEAEAAAEAAAPAAQPEVEKPQKKPVIKPLTEDSKKRSYNLISNDSTFTQYRSWYLAYNYGDPQTGIRSWTLLCTPDVTCGSEQVYWSLPDMMQDPVTFRSTRQISNFPVVGAELLPVHSKSFYNDQAVYSQLIRQFTSLTHVFNRFPENQILARPPAPTITTVSENVPALTDHGTLPLRNSIGGVQRVTITDARRRTCPYVYKALGIVSPRVLSSRTFKKKKKKKKKK
# Assays:
# [1] = tested on: MDA-MB-231; assay: HerDox cytotoxicity dose curves (metabolic assay, crystal violet); assay type: cell-based, human; settings: MDA-MB-231, low HER2; day 3; read-out: CD50 (the source's name)
# Description: (§1) FIG. 21 depicts, in accordance with an embodiment herein, toxicity to cells displaying differential HER2. Cytotoxicities from a range of HerDox doses were assessed on each cell line by metabolic assay and confirmed by crystal violet stain. CD50 values (shown in log scale) were determined by non-linear regression analyses of HerDox dose curves using a scientific graphing program (GraphPad Prism) and confirmed with an on-line calculator (Chang bioscience). The relative HER2 level of each cell line is shown next to each CD50 value.
# (§2) All treatments, N=3. FIG. 27A. Comparing cytotoxicity to HER2+ (MDAMB-435) and HER2− (MDA-MB-231) cells in separate cultures. Left, Relative survival (as % of untreated cells) on day 3 of treatment. Right, Micrograph of live cells after treatment. Control, mock (HBS) treatment. FIG. 27B, Receptor specificity of cytotoxicity. […] FIG. 27C, Toxicity to cells displaying differential HER2. Cytotoxicities from HerDox titrations were assessed on each cell line by metabolic assay and confirmed by crystal violet stain on day 3 of treatment. CD50 values (shown in log scale) were determined by non-linear regression analyses of HerDox killing curves using GraphPad Prism. The relative HER2 level of each cell line is shown next to each CD50 value. […] Survival was determined by calculating the relative doubling time (DT) of experimental (exp) cells normalized by mock-treated (con) cells based on crystal violet stains (total cells) and GFP fluorescence (MDAMB-231 cells), and applying DTMDA-MB-435=DTTotal-DTMDA-MB-231 as previously described. […] U251 cells were treated once with the indicated HerDox (and competitive inhibitor where indicated) or Dox doses and measured for cell survival at the indicated time points after treatment. * P<0.05 compared to Mock. […]
# (§3) To assess the contribution of HER2 to therapeutic efficacy in vitro, we determined HerDox CD50 on selected human tumor lines displaying HER2 at relatively high (SKBR3), moderate (MDA-MB-435, MDAMB-453, HeLa), and low to undetectable (MDA-MB-231) levels, according to our receptor subunit profiling of a cell line panel.
# [2] = tested on: MDA-MB-435, MDAMB-453, HeLa; assay: as above; assay type: cell-based, human; settings: intermediate HER2 levels; day 3; read-out: CD50 (the source's name)
# Description: as §1, §2, §3
# [3] = tested on: SKBR3; assay: as above; assay type: cell-based, human; settings: SKBR3, high HER2; day 3; read-out: CD50 (the source's name)
# Description: as §1, §2, §3
# [4] = TUNEL staining of liver and kidney tissue of treated mice; settings: mouse, in vivo
# Description: Control (saline-injected) mice were euthanized early due to tumor ulceration, in compliance with IACUC policy. […] FIG. 30E, TUNEL staining and quantification in liver and kidney tissue obtained from treated mice. Micrographs obtained at 20× magnification (left set of panels) show fluorescently-stained nuclei in apoptotic cells (delineated areas are enlarged in micrographs to the right). Graph summarizes relative fluorescence intensities of each treated tissue (N>200 fields per treatment).
# Fixed, sectioned tissues were processed by incubation in a dry 60° C. oven for 1 h followed by sequential submersion in xylenes for 4 min×5, then hydration in 100%, 95%, 90%, 80%, 70% ethanol for 3 min, 2 times each and final submersion in water. After Proteinase K (20 ug/ml in 10 mM Tris pH 7.8) incubation and rinsing in PBS, sections were treated for TUNEL staining following the manufacturer's instructions (XXX) and assessed by confocal fluorescence imaging. Here, 10 TUNEL images at different locations per tissue were acquired using a Leica confocal SPE microscope (20×, ex: 488 nm, and em: 530 nm). Central regions of each tissue were imaged to avoid fixation artifacts. Nuclear fluorescence intensities, reflective of DNA fragmentation, were measured and averaged using ImageJ.
molecule,measurement,setting,value
B1,IC50,[1],> 8 µM
same,IC50,[2],0.3 to 0.8 µM
same,IC50,[3],0.056 ± 0.017 µM
same,apoptosis in the kidney (TUNEL),[4],Neither Dox nor HerDox showed substantial apoptosis
same,apoptosis in the liver (TUNEL),[4],did not; also recorded: negligible apoptosis
